In publication PMC6695498 (2019):

Key:
[1] = molecular target: SUMO2 chain (linear dimer/trimer) (Homo sapiens, UniProt P61956); assay: ITC
[2] = molecular target: SUMO1-capped SUMO2 chain (linear dimer/trimer) (Homo sapiens, UniProt P63165); assay: ITC
SUMO1-capped SUMO2 chain (linear dimer/trimer), sequence (P63165 2-97, chain 1 of 2): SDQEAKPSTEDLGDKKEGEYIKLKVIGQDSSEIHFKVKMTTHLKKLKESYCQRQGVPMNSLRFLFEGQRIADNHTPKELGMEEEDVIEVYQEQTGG
SUMO1-capped SUMO2 chain (linear dimer/trimer), sequence (chain, as listed by the source, chain 2 of 2): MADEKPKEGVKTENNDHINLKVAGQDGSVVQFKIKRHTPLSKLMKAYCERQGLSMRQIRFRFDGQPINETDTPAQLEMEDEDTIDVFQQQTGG

SUMO2 chain (linear dimer/trimer), sequence (P61956 1-93): as the sequence (chain, as listed by the source, chain 2 of 2) above

- Kd [1]: ~13.5 µM
- Kd [2]: ~2.5 µM
B1: Arkadia SUMO-binding domain (protein)
chain: VLARRKYALLPSSSSSSENDLSSESSSSSSTEGEEDLFVSASENHQNNPAVPSGSIDEDVVVIEASSTPQVTANEEINVTSTDSEVEIVTVGESYRSRSTLGHSRSHWSQGSSSHASRPQEPRNRSRISTVIQPLRQNAAEVVDLTVDEDEPTVVPTTSARMES
